Laboratory results: patent US5876950

B1: monoclonal antibody 39-1.7 (antibody, V domains shown)
VH: EVQLQQSGPELVKPGASVKMSCKASGYTFTDYYMKWVKQSHGKSLEWIGNINPNNGDTFFNQKFEGKATLTVDKSSSAAYMQLNSLTSEDSAVKKCARGPGTNYFDYWGQGTTLTVSS
VL: DIVLTQSPVSLAVSLGQRVTISCRASQSVSSSTNSYMHWYQQKPGQPPKLLIKYASNLESGVPARFSGSGSGTDFTLNIHPVEEEDTATYYCQHSWEIPFTFGSGTKLEIRR
B2: monoclonal antibody 39-1.106 (antibody, V domains shown)
VH: EVKLVESGGGLVKPGGSLKLSCTTSGFTFNNYAMSWVRQTPEKRLEWVASISSGDSTYYPDSVRGRFTISRDNARNILYLQMSSLRSEDTAMYYCARHYDYDSYAMDYWGQGTSVTVSS
VL: DIQMTQSPASLSASVGETVTITCRASETIYSYLAWYQQKQGRSPQLLVYNAKTLAEGVPSRFSGSGSGTQFSLKINSLQPEDFGSYYCQHHYNTPLTFGTGTKLELKR

Tests used:
[1] = biological target: human gp39 (human) (UniProt P29965)
[2] = biological target: human gp39 (human) (UniProt P29965); remark: listed apart in the source
[3] = biological target: human gp39 (human) (UniProt P29965); remark: listed apart in the source
[4] = biological target: gp39-CD8 fusion protein mutant Y145/A (murine; human); experiment: ELISA on captured mutant gp39-CD8
[5] = biological target: gp39-CD8 fusion protein mutant N180/A (murine; human); experiment: ELISA on captured mutant gp39-CD8
[6] = biological target: gp39-CD8 fusion protein mutant F201/A-E202/A (murine; human); experiment: ELISA on captured mutant gp39-CD8
[7] = biological target: gp39-CD8 fusion protein mutant S131/A-T135/A (murine; human); experiment: ELISA on captured mutant gp39-CD8
[8] = biological target: gp39-CD8 fusion protein mutant K143/A (murine; human); experiment: ELISA on captured mutant gp39-CD8
[9] = biological target: gp39-CD8 fusion protein mutant E129/A (murine; human); experiment: ELISA on captured mutant gp39-CD8
[10] = biological target: human gp39 (human) (UniProt P29965); experiment: saturation binding of iodinated protein to gp39+ BMS-10 Jurkat cells
[11] = biological target: human gp39 (human) (UniProt P29965); experiment: Scatchard transformation, BMS-10 Jurkat cells
[12] = biological target: human gp39 (human) (UniProt P29965); experiment: saturation binding of radiolabeled protein to Jurkat cells constitutively expressing gp39

Sequence of human gp39 (human) (P29965 whole entry, the tested form may be a part): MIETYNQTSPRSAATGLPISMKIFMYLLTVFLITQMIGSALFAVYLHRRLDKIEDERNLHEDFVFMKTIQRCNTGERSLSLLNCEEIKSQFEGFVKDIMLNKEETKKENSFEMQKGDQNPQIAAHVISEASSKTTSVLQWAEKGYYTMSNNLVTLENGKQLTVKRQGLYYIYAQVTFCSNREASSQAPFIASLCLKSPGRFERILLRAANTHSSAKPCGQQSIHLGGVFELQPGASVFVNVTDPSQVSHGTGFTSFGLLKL
Sequence of gp39-CD8 fusion protein mutant S131/A-T135/A (murine; human) (P01731 other isoform, or with tags, fused parts or gaps mutant): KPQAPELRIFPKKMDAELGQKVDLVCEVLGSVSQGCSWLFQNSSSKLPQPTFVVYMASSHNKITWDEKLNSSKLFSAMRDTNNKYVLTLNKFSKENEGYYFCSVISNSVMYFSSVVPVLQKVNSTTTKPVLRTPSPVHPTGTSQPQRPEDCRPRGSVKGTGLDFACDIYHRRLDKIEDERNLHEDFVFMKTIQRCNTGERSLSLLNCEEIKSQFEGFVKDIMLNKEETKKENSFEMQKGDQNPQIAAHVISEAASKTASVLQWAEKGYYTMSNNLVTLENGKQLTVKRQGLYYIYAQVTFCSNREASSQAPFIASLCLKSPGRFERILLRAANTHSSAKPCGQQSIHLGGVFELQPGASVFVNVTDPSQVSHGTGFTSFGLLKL
Sequence of gp39-CD8 fusion protein mutant Y145/A (murine; human) (P01731 other isoform, or with tags, fused parts or gaps mutant): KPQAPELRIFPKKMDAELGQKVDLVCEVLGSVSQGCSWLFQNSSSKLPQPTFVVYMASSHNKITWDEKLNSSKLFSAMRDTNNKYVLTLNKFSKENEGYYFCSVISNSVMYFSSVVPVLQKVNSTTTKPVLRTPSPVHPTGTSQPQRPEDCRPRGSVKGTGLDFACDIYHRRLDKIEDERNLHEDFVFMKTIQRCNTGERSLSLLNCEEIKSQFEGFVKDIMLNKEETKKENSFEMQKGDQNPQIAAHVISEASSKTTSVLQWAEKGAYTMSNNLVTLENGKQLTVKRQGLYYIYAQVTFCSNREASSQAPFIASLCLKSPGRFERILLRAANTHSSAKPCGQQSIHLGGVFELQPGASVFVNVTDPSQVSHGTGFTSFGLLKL
Sequence of gp39-CD8 fusion protein mutant E129/A (murine; human) (P01731 other isoform, or with tags, fused parts or gaps mutant): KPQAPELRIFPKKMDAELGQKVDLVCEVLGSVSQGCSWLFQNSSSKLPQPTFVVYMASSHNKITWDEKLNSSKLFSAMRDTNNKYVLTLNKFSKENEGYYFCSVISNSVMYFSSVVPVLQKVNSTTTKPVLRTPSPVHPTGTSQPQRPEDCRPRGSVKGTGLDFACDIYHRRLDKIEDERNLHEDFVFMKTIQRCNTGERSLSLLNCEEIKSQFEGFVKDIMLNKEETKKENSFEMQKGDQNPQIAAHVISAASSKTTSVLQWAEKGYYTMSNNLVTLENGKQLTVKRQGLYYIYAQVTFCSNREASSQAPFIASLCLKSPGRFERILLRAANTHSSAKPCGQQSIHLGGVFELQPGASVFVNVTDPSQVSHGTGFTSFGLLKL
Sequence of gp39-CD8 fusion protein mutant N180/A (murine; human) (P01731 other isoform, or with tags, fused parts or gaps mutant): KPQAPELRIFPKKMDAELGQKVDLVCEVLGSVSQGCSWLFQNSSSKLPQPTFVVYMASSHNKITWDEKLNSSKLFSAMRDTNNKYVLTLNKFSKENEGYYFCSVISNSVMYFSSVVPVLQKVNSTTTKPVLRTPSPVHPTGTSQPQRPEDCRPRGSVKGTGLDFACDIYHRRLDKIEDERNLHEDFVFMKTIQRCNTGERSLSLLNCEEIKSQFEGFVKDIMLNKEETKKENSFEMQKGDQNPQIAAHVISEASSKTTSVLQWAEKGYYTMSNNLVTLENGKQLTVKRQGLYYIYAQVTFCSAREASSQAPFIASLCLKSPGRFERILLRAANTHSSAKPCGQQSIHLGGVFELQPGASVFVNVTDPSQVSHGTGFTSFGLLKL

| Molecule | IgM produced, % of medium control (IgG in the next line) (% of medium control) [1] | [3H]thymidine incorporation of B cells, % of medium control (% of medium control) [1] | IgG synthesis by B cells at 20 µg/ml purified mAb, % of medium control (% of medium control) [2] | IgG synthesis at 7.53 x 10^12 binding sites/ml, % of medium only control (% of medium only control) [3] | binding relative to wild-type gp39 [4] | binding relative to wild-type gp39 [5] | binding relative to wild-type gp39 [6] | binding relative to wild-type gp39 [7] | binding relative to wild-type gp39 [8] | binding relative to wild-type gp39 [9] | Kd [10] | sites per cell (sites per cell) [11] | fold greater affinity than 106 sFv-Ig [12] |
| --- | --- | --- | --- | --- | --- | --- | --- | --- | --- | --- | --- | --- | --- |
| negative control monoclonal antibody | 87.9 | 87.9 | – | – | – | – | – | – | – | – | – | – | – |
| B1 | 13.9 | 3.3 | 17 | 12 | 106% | 93% | 112% | 89% | 5% | 70% | – | – | – |
| B2 | 17.9 | 2.9 | 8 | 11 | 124% | 144% | 9% | 113% | 52% | 130% | 0.4 nM | 10000 | 3 fold |
